Where no end group is shown, it is not given here. Where only a bound is given, the exact number is not on record here.

Here are results for four molecules from patent US20090053212A1 (Astellas, published 2009).

Experiment [1] addresses T1, hOPN5-BSA conjugate (human osteopontin peptide CVDTYDGRGDSVVYGLRS coupled to BSA) (human, also: coupled to maleimide-activated BSA (Sulfo-EMCS), site not given here).
T1 construct: Immobilized on the ELISA plate at 200 ng/100 uL/well as a BSA conjugate; also called hOPN5 peptide
T1 peptide: CVDTYDGRGDSVVYGLRS
Description: ELISA, HRP-labeled anti-E-Tag antibody detection. As to the method: (§1) The peptide having the above-described sequence (hereinafter also referred to as the hOPN5 peptide) was reacted with BSA incorporating a maleimide group introduced using Sulfo-EMCS (Dojindo Laboratories) to prepare a hOPN5-BSA conjugate. The hOPN5-BSA conjugate was immobilized at 200 ng/100 μL/well on an ELISA plate (Nunc Company) at 4° C. overnight, and the plate was washed, after which blocking was performed with PBS supplemented with 1% BSA at 4° C. overnight. An antibody sample diluted with PBS supplemented with 1% BSA was added to the plate at 100 μL/well, and they were reacted at 37° C. for 1 hour. Detection was performed using a peroxidase (HRP)-labeled anti-human IgG (H+L) antibody (Wako Pure Chemical Industries, Ltd.). Absorbance at a wavelength of 450 nm was measured using a microplate reader (Molecular Devices Company).
(§2) The binding activity of the purified R2K1v1.7-scFv to the hOPN5 peptide was measured by an ELISA method. The method was generally the same as described above; in this measurement, HRP-labeled anti-E-Tag antibody was used as the labeled antibody.
A general note: An ELISA detects its analyte on a solid surface through an enzyme-linked reagent.

The next experiment has as its target T2, BSA (UniProt P02769 25-607).
T2 construct: also called negative control BSA
Description: ELISA, detection with HRP-labeled anti-E-Tag antibody. As to the method:
as §1, §2

Experiment [2] deals with thrombin-cleaved human osteopontin (human), P10451. Put plainly: cell-based or functional assay.
Experiment [3] has as its target T1, hOPN5-BSA conjugate (human osteopontin …). Put plainly: ELISA, hOPN5-BSA conjugate on the plate, HRP-labeled anti-human IgG (H+L) detection. As to the method: as §1
For the next experiment, the target named is T3, biotinized hOPN5 peptide (human, also: biotinylated, site not given here).
T3 peptide: CVDTYDGRGDSVVYGLRS
Put plainly: surface plasmon resonance (BIAcore), biotinized hOPN5 peptide on Sensor Chip SA, F(ab')2-PEG at 5 ug/mL. As to the method:
The binding activity of the purified F(ab′)₂—PEG of R2K1v1.7 to the hOPN5 peptide was confirmed using surface plasmon resonance assay. The biotinized hOPN5 peptide was immobilized on Sensor Chip SA (BIAcore Company), and its binding activity was confirmed using the F(ab′)₂—PEG, previously diluted to 5 μg/mL with HBS-EP buffer (BIAcore Company); the results are shown in FIG. 16. From a rise in the signal, this F(ab′)₂—PEG was confirmed as having the same binding activity to the hOPN5 peptide as that of R2K1v1.7.
Background: Surface plasmon resonance follows binding to a sensor surface in real time, without labels.

Experiment [4] deals with human OPN peptide (SVVYGLR sequence of human OPN) (human). Put plainly: method not stated.

Chain of thrombin-cleaved human osteopontin (human), P10451 (P10451 17-314): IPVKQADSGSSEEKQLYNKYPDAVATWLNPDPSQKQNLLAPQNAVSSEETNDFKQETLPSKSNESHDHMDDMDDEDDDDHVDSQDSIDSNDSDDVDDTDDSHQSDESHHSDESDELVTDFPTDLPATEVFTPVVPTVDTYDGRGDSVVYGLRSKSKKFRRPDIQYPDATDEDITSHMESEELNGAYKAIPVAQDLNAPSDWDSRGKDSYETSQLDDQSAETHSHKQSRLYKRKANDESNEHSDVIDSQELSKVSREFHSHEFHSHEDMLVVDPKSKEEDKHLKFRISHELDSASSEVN
T2 sequence (P02769 25-607 limits assumed): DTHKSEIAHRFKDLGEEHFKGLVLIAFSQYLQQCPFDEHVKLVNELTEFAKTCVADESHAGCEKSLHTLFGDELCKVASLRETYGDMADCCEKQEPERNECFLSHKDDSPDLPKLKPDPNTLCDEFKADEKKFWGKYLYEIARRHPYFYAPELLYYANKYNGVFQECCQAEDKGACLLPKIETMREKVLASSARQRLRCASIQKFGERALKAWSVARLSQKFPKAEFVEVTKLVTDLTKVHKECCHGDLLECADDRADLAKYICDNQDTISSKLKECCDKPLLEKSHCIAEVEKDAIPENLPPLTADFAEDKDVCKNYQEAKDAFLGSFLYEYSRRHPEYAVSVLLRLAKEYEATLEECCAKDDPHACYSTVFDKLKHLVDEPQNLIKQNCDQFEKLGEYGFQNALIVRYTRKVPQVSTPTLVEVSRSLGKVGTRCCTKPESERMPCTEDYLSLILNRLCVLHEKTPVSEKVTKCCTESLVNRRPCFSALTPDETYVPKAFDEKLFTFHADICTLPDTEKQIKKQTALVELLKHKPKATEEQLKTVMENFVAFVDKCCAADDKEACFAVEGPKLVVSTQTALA

B1: R2K1v1.7-scFv (scFv)
scFv: QVQLQQSGAEVKKPGASVKVSCKALGYTFTDYEMHWVKQTPVHGLEWIGAIHPGRGGTAYNQKFKGKATLTADKSTSTAYMELSSLTSEDTAVYYCTRITGYFDVWGQGTTVTVSSGGGGSGGGGSGGGGSDVVMTQSPLSLSVTLGQPASISCRSSQSIVHSNGNTYLEWYLQKPGQSPQLLIYKVSNRFSGVPDRFSGSGSGTDFTLKISRVEAEDVGVYYCFQGSHVPLTFGQGTKLEIKR
notes: Structure VH1.7-linker-VL1.7, expressed in E. coli HB2151 periplasm, nearly all monomeric by gel filtration; also called scFv of R2K1v1.7; purified R2K1v1.7-scFv; not shown: C-terminal E-Tag from the pCANTAB5E vector, and any joining residues from the NotI site
For B1, the binding result was “binds” in experiment [1] and “no binding” in the experiment with BSA.

B2: R2K1v1.8 antibody (antibody, V domains shown)
VH: QVQLVQSGAELVRPGSSVKVSCKASGYTFTDYEMHWVKQTPVHGLEWIGAIHPGRGGTAYNQKFKGKATLTADKSTSTAYMELSSLTSEDTAVYYCTRITGYFDVWGQGTTVTVSS
VL: DVVMTQSPLSLPVTLGQPASISCRSSQSIVHSNGNTYLEWYLQKPGQSPQLLIYKVSNRFSGVPDRFSGSGSGTDFTLKISRVEAEDVGVYYCFQGSHVPLTFGQGTKLEIKR
notes: Only entries with a leader are tied to VH1.8 and VL1.8; also called humanized 2K1 antibody; R2K1 antibody
Turning to B2, the Mean cell count (migration of TNF-alpha-activated human peripheral blood monocytes, 48-well microchemotaxis chamber; antibody 50 ug/mL) in experiment [2] was found to be 688 cells/mm^3. For the same molecule, the binding result in experiment [3] is on record as “binds”.

B3: polyethylene glycol modified F(ab')2 of the R2K1v1.7 antibody (other, not shown: small tags and cut ends)
heavy: QVQLQQSGAEVKKPGASVKVSCKALGYTFTDYEMHWVKQTPVHGLEWIGAIHPGRGGTAYNQKFKGKATLTADKSTSTAYMELSSLTSEDTAVYYCTRITGYFDVWGQGTTVTVSS
light: DVVMTQSPLSLSVTLGQPASISCRSSQSIVHSNGNTYLEWYLQKPGQSPQLLIYKVSNRFSGVPDRFSGSGSGTDFTLKISRVEAEDVGVYYCFQGSHVPLTFGQGTKLEIKRTVAAPSVFIFPPSDEQLKSGTASVVCLLNNFYPREAKVQWKVDNALQSGNSQESVTEQDSKDSTYSLSSTLTLSKADYEKHKVYACEVTHQGLSSPVTKSFNRGEC
modifications: maleimidated polyethylene glycol SUNBRIGHT ME-120MA coupled to thiol groups activated by DTT reduction
notes: Made by pepsin digestion of R2K1v1.7, reduction of F(ab')2 to Fab' with DTT and coupling with maleimide-PEG; also called F(ab')2-PEG; F(ab')2-PEG of R2K1v1.7
Regarding B3, the binding result with biotinized hOPN5 peptide is reported as “binds”.

B4: R2K1v1.7 antibody (antibody, human IgG1, kappa, V domains shown)
VH: QVQLQQSGAEVKKPGASVKVSCKALGYTFTDYEMHWVKQTPVHGLEWIGAIHPGRGGTAYNQKFKGKATLTADKSTSTAYMELSSLTSEDTAVYYCTRITGYFDVWGQGTTVTVSS
VL: DVVMTQSPLSLSVTLGQPASISCRSSQSIVHSNGNTYLEWYLQKPGQSPQLLIYKVSNRFSGVPDRFSGSGSGTDFTLKISRVEAEDVGVYYCFQGSHVPLTFGQGTKLEIKR
As to B4, the fold binding affinity against the corresponding monkey OPN peptide in experiment [4] is over 100 times.
